One series concerns HBECp53 cells. The experiment in a line: AlamarBlue viability dose-response (growth inhibition). The series is classed as cell-based, human. The settings on record: 96 hours. The protocol: (§1) Expression of […] (FIG. 1A) or SLC3A2-NRG1 (FIG. 2B) fusions in MDA-MB-175-VII and LUAD-0061AS3 cells, respectively, was determined by RT-PCR. The HBECp53 (NRG1 fusion negative) and HBECp53-SLC3A2-NRG1 cells were used as negative and positive controls, respectively. […] Viability results represent the mean±SEM of 2-5 independent experiments in which each condition was assayed in triplicate determinations. Viability data were analyzed by nonlinear regression and the IC50 values for growth inhibition and the 95% confidence interval were determined with GraphPad Prism 8. […] Results represent the mean±SD for one experiment in which each condition was assayed in duplicate.
(§2) For the time-course experiments, cells were plated at a density of 5,000 (HCC-95) or 10,000 (all others) cells per well in 12-well tissue culture plates, and then treated 24 hours later (time 0) with the respective agents. […] Cells were trypsinized and counted at the relevant time-point shown on the graphs. For dose-response studies, cells were plated at a density of 7,500-10,000 cells in white clear-bottom 96-well plates in a volume of […] complete growth media and […] chemicals added at 10× concentration (to achieve 1× concentration) in a final volume of […]. After 96-hour incubation, […] AlamarBlue cell viability reagent was added to achieve a final concentration of 10%. AlamarBlue is a cell permeable […] dye that is reduced when it enters the mitochondria and emits fluorescence at a different wavelength (Gloeckner H, J. Immunol. Methods 2001; 252:131-8). Fluorescence was measured (excitation, 530 nm and emission, 585 nm) using a […] Spectramax M2 Fluorescence Plate Reader, as described previously (Somwar R, J. Biomol. Screen 2009; 14:1176-84). In each experiment, background fluorescence was determined in cells treated with […] of the 20S proteasome inhibitor, carfilzomib, which is toxic to most cells at high concentrations, and was subtracted from all values. There were 3-4 replicates of each condition. Relative IC50 values and 95% confidence interval values were determined by nonlinear regression analysis using GraphPad Prism 8 software using either a variable slope model or in cases where inhibition was only partial, a three-parameter fit was used. […] Each condition was assayed in triplicate in 2-5 independent experiments.
(§3) Cells expressing NRG1 fusions rely on activation of HER3 for growth and survival. […] The estimated IC50 values obtained for growth inhibition are determined.

The subject of a further series is LUAD-0061AS3 cells. The series is described as above. The series is classed as cell-based, human. The note with it: 96 hours. On the procedure:
as §1, §2, §3

The next series deals with MCF-7 cells. Described as above. The series is classed as cell-based, human. The settings on record: 96 hours. On the procedure: as §1, §2, §3
In the next series the test system is MDA-MB-175-VII cells. The series is described as above. The format is cell-based, human. The note with it: 96 hours. On the procedure:
as §1, §2, §3

Series [1] concerns EGFR, HER2, HER3, HER4, PI3K, mTOR and MAPK pathways in HBECp53-CD74-NRG1 cells. Description: Western blotting of protein phosphorylation. The format is cell-based, human. The note with it: serum-starved, 1 hour. On the procedure: (§4) Whole-cell extracts were prepared after all treatments and subjected to SDS-PAGE, followed by immunoblotting for the phosphorylated (p) or total (t) proteins shown in each panel. All Western blotting studies were conducted at least two times and representative immunoblots of phosphorylated (p) and total (t) proteins are shown.
(§5) These events likely culminate in inhibition of growth and impaired survival.
(Immunoblotting shows a protein as a band on a membrane.)

Series [2] relates to EGFR, HER2, HER3, HER4, PI3K, mTOR and MAPK pathways in LUAD-0061AS3 cells. The experiment in a line: Western blotting of protein phosphorylation. The format is cell-based, human. The note with it: serum-starved, 1 hour. On the procedure: as §4, §5
In a further series the test system is CTG-0943 PDX tumors. Description: Pancreatic adenocarcinoma PDX model (APP-NRG1). The format is in vivo, mice. On the procedure:
Mice bearing CTG-0943 PDX tumors (5-8 mice per group) were treated with indicated agents (FIG. 8A). Representative H&E-stained slides of a vehicle-treated tumor (FIG. 8B). Tumor volume, results represent the mean±SEM. […] Change in the volume of individual tumors (vehicle: day 20; treated groups: day 31) compared with day 0(%) (FIG. 8D). Western blot analysis of vehicle, and afatinib and seribantumab-treated tumors. Tumor residues extracted day 24 for vehicle-, day 31 for seribantumab-, and day 32 for afatinib-treated groups. Antibody reactivity with human (H) and/or mouse (M) proteins is indicated.
Models of isogenic pancreatic cancer cells with NRG1 fusions by lentiviral-mediated cDNA expression of ATP1B1-NRG1 and SLC3A2-NRG1 fusions in immortalized human pancreatic ductal cells (H6c7) were developed. […] Western blotting analysis was used to evaluate protein phosphorylation and expression. The presence of NRG1 fusions was confirmed by reverse transcription polymerase chain reaction (RT-PCR) and next-generation sequencing (NGS).
There was no regression of afatinib-treated pancreatic PDX tumors. […] This was confirmed using a human-specific GAPH antibody.

Series [3] has as its system KRAS wt pancreatic ductal adenocarcinoma with ATP1B1-NRG1 gene fusion. The experiment in a line: Compassionate access case, MoST program. The format is in vivo, human. On the procedure:
FIGS. 10A-10B are representative computed tomography (CT) images of a liver metastasis in a patient with KRAS WT pancreatic cancer that harbors an ATP1B1-NRG1 gene fusion. The patient was treated with seribantumab.
In brief, patients with advanced solid tumors of any histology undergo molecular screening. Genomic alterations are reviewed at molecular tumor boards to identify appropriate biomarker-matched therapeutic sub-studies. Seven GI cancer patients with durable clinical benefit were identified by case review, including a patient with KRAS WT pancreatic cancer harboring an ATP1B1-NRG1 gene fusion. Neuregulin 1 (NRG1) gene fusion proteins are an important oncogenic driver, enriched amongst KRAS wild-type PDAC (8-10%) (Aguirre A J., Clin. Cancer Res. 2019 August; 25(15)). NRG1 is the predominant ligand of ERBB3. These fusion proteins drive tumor progression through aberrant ERBB3 activation. […] The patient had previously exhausted available therapies and had been treated as follows: (1) October 2019 to January 2020, FOLFIRINOX, (2) January 2020 to June 2020, FOLFIRI, (3) June 2020 to August 2020, Gemcitabine/Abraxane, (4) August 2020 to December 2020, FOLFIRI.

For series [4] the following is noted: n=847 patients treated; cited from earlier work.
[5] abbreviates: 5 mg or 10 mg twice weekly seribantumab.

The values below come from patent publication US20220288204A1, “DOSAGE AND ADMINISTRATION OF ANTI-ERBB3 (HER3) MONOCLONAL ANTIBODIES TO TREAT TUMORS ASSOCIATED WITH NEUREGULIN 1 (NRG1) GENE FUSIONS” (ELEVATION ONCOLOGY, INC., priority 2021, published 2022).

B1: seribantumab: anti-ERBB3 (HER3) fully human monoclonal antibody; heavy and light chains SEQ ID NOs: 12 and 13 (antibody)
heavy: EVQLLESGGGLVQPGGSLRLSCAASGFTFSHYVMAWVRQAPGKGLEWVSSISSSGGWTLYADSVKGRFTISRDNSKNTLYLQMNSLRAEDTAVYYCTRGLKMATIFDYWGQGTLVTVSSASTKGPSVFPLAPCSRSTSESTAALGCLVKDYFPEPVTVSWNSGALTSGVHTFPAVLQSSGLYSLSSVVTVPSSNFGTQTYTCNVDHKPSNTKVDKTVERKCCVECPPCPAPPVAGPSVFLFPPKPKDTLMISRTPEVTCVVVDVSHEDPEVQFNWYVDGVEVHNAKTKPREEQFNSTFRVVSVLTVVHQDWLNGKEYKCKVSNKGLPAPIEKTISKTKGQPREPQVYTLPPSREEMTKNQVSLTCLVKGFYPSDIAVEWESNGQPENNYKTTPPMLDSDGSFFLYSKLTVDKSRWQQGNVFSCSVMHEALHNHYTQKSLSLSPGK
light: QSALTQPASVSGSPGQSITISCTGTSSDVGSYNVVSWYQQHPGKAPKLIIYEVSQRPSGVSNRFSGSKSGNTASLTISGLQTEDEADYYCCSYAGSSIFVIFGGGTKVTVLGQPKAAPSVTLFPPSSEELQANKATLVCLVSDFYPGAVTVAWKADGSPVKVGVETTKPSKQSNNKYAASSYLSLTPEQWKSHRSYSCRVTHEGSTVEKTVAPAECS
A word on the IC50: it is the midpoint of a concentration-inhibition curve. A lower IC50 goes with inhibition by little substance. Consider B1, for which the IC50 was found to be 203 µM in the series on HBECp53 cells (AlamarBlue), 1.4 µM in the series with LUAD-0061AS3 cells (AlamarBlue), 45.2 µM in the series on MCF-7 cells (AlamarBlue) and 0.02 µM in the series with MDA-MB-175-VII cells (AlamarBlue). Besides, the effect on growth result is listed as “minimal effect” in the series on HBECp53 cells (no NRG1 fusion), “reduced growth in a dose-dependent manner” in the series with LUAD-0061AS3 cells (dose-response), “minimal effect” in the series with MCF-7 cells (no NRG1 fusion) and “reduced growth in a dose-dependent manner” with MDA-MB-175-VII cells (dose-response). Moreover, in series [1], the HER3 phosphorylation result is recorded as “completely inhibited”. Also, the “phosphorylation of AKT, p70S6K, and STAT3” value in series [1] was “almost completely inhibited”. Moreover, the “phosphorylation of EGFR, HER2, HER3, HER4, AKT, and STAT3” value in series [2] was “almost complete inhibition”. The “phosphorylation of ERK1/2” value in [2] is “less sensitive”. Moreover, the tumor growth entry with CTG-0943 PDX tumors (setting [5]) is listed as “Tumor growth inhibition was observed”. The tumor shrinkage result with CTG-0943 PDX tumors (setting [5]) is recorded as “up to 55%”. Besides, in the series with CTG-0943 PDX tumors (setting [5]), the “tumor shrinkage, range” value was 23-77%. Besides, in the series on CTG-0943 PDX tumors (seribantumab-treated tumors, end of study (day 31)), the “proteins in residual tumors by Western blotting” value is “Loss of phosphorylated and total EGFR, HER2 and HER3, cyclin D1”. Further, in the series on CTG-0943 PDX tumors (two doses of seribantumab vs afatinib 5 mg/kg QD), the “efficacy compared with afatinib” value is recorded as “more effective than afatinib”. The “liver metastasis NTL1 liver seg 8 on CT” value in series [3] (June 2021, 26×26 mm before seribantumab) is recorded as “resolved”. Also, in series [3] (one patient), the “duration of ongoing treatment at data cutoff” value is listed as at least 8 months. For the same molecule, the tumor response entry in series [3] (person, treated from December 2020) is listed as “partial response”. For the same molecule, the “grade of infusion related reactions” value in [4] is “Grade 1 or 2”. Besides, in [4], the “patients experiencing an infusion related reaction” value was under 1%.
